The values that follow come from the supplement of paper PMC7877785.

The data set in a line: self-splicing fitness, log relative to wild type (ln ratio); higher = more splicing; Tetrahymena group I intron in knt gene, E. coli kanamycin selection, DiMSum; sequences stand for … in CUCUCU…GGAGGGAAAAGUUAUCAGGCAUGCACCUGGUAGCUAGUCUUUAAACCAAUAGAUUGCAUCGGUUUAAAAGGCAAGACCGUCAAAUUGCGGGAAAGGGGUCAACAGCCGUUCAGUACCAAGUCUCAGGGGAAACUUUGAGAUGGCCUUGCAAAGGGUAUGGUAAUAAGCUGACGGACAUGGUCCUAACCACGCAGCCAAGUCCUAAGUCAACAGAUCUUCUGUUGAUAUGGAUGCAGUUCACAGACUAAAUGUCGGUCGGGGAAGAUGUAUUCUUCUCAUAAGAUAUAGUCGGACCUCUCCUUAAUGGGAGCUAGCGGAUGAAGUGAUGCAACACUGGAGCCGCUGGGAACUAAUUUGUAUGCGAAAGUAUAUUGAUUAGUUUUGGAGUACUCGUGGUCG
The method, boiled down:
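The eight P1ex-region nucleotides of an intron in the knt kanamycin-resistance gene on pET-22b(+) were all randomised and the library put into E. coli BL21(DE3). Six replicate transformations were grown overnight at 37°C or 30°C on LB agar with or without 25 μg/mL kanamycin, together with 100 μg/mL carbenicillin, 50 μM IPTG and 0.2% rhamnose. Colonies were pooled and amplicon-sequenced on an Illumina HiSeq 2500. Fitness from DiMSum is the error-weighted combination of wild-type-normalised replicate fold changes, kanamycin over none.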

± gives the uncertainty stated by the source.

On to AGCUAGCAAUAUUACGAGUG, for which the “self-splicing fitness (ln)” value (30 °C) was -0.877 ± 0.066 and the “self-splicing fitness (ln)” value (37 °C) is -0.529 ± 0.084.
For AUCUAGCAAUAUUACGUGGU, the “self-splicing fitness (ln)” value (37 °C) was -2.85 ± 0.38.
As for UAAAAGCAAUAUUACGAUGA, the “self-splicing fitness (ln)” value is, setting by setting: (30 °C) -0.245 ± 0.085; (37 °C) 0.0881 ± 0.087.
AAAAAGCAAUAUUACGAGGA: the “self-splicing fitness (ln)” value is -2.86 ± 0.16 (30 °C) and -2.21 ± 0.15 (37 °C).
Regarding GACAAGCAAUAUUACGCGAC, the “self-splicing fitness (ln)” value is, setting by setting: (30 °C) -1.52 ± 0.15; (37 °C) -1.63 ± 0.19.
For the sequence ACGAAGCAAUAUUACGUGGA, the “self-splicing fitness (ln)” value is -2.7 ± 0.13 (30 °C) and -2.69 ± 0.18 (37 °C).
For GAAUAGCAAUAUUACGCCAA, the “self-splicing fitness (ln)” value by setting is: (30 °C) -2.44 ± 0.23; (37 °C) -1.39 ± 0.16.
Turning to AGGUAGCAAUAUUACGGGAA, the “self-splicing fitness (ln)” value runs as follows: (30 °C) -2.69 ± 0.027; (37 °C) -2.11 ± 0.038.
Consider GACUAGCAAUAUUACGGAAG, for which the “self-splicing fitness (ln)” value is, setting by setting: (30 °C) -3.56 ± 0.19; (37 °C) -2.21 ± 0.19.
Regarding CUGAAGCAAUAUUACGAUGU, the “self-splicing fitness (ln)” value is -3.12 ± 0.13 (30 °C) and -1.21 ± 0.12 (37 °C).
In the same order, the values of GAAAAGCAAUAUUACGACUG are -0.58 ± 0.094 and -0.857 ± 0.1.
For ACAGAGCAAUAUUACGGGAU, the “self-splicing fitness (ln)” value was -3.52 ± 0.11 (30 °C) and -3.03 ± 0.15 (37 °C).
In the same order, the values of CAAAAGCAAUAUUACGUUUA are -2.19 ± 0.13 and -1.3 ± 0.13.
On to CGUAAGCAAUAUUACGCCGA, for which the “self-splicing fitness (ln)” value (30 °C) is -3.5 ± 0.25 and the “self-splicing fitness (ln)” value (37 °C) is -1.44 ± 0.14.
Take UGUGAGCAAUAUUACGCUUC: where the note is “30 °C”, the “self-splicing fitness (ln)” value was -2.97 ± 0.39.
For the sequence AUUGAGCAAUAUUACGUGAU, the “self-splicing fitness (ln)” value (30 °C) was -1.58 ± 0.14 and the “self-splicing fitness (ln)” value (37 °C) was -2.17 ± 0.22.
Take GAAUAGCAAUAUUACGUCUU: the “self-splicing fitness (ln)” value was -0.449 ± 0.059 (30 °C) and 0.342 ± 0.074 (37 °C).
On to CAGUAGCAAUAUUACGACCG, for which the “self-splicing fitness (ln)” value (30 °C) is 0.558 ± 0.16 and the “self-splicing fitness (ln)” value (37 °C) was -0.0835 ± 0.2.
For GGUCAGCAAUAUUACGUUUG, the “self-splicing fitness (ln)” value is -2.61 ± 0.11 (30 °C) and -2.38 ± 0.15 (37 °C).
As to AUUUAGCAAUAUUACGCCUG, the “self-splicing fitness (ln)” value (30 °C) was -1.23 ± 0.12 and the “self-splicing fitness (ln)” value (37 °C) was -0.529 ± 0.12.
For UCAUAGCAAUAUUACGGUGG, the “self-splicing fitness (ln)” value (30 °C) was -3.13 ± 0.15 and the “self-splicing fitness (ln)” value (37 °C) is -2.07 ± 0.17.
Consider CAGUAGCAAUAUUACGAGAU, for which the “self-splicing fitness (ln)” value runs as follows: (30 °C) -4.27 ± 0.46; (37 °C) -1.9 ± 0.27.
As to UCAUAGCAAUAUUACGGCUC, the “self-splicing fitness (ln)” value (30 °C) is -2.73 ± 0.24 and the “self-splicing fitness (ln)” value (37 °C) was -1.78 ± 0.26.
Take AUUCAGCAAUAUUACGAUCC: the “self-splicing fitness (ln)” value (30 °C) is -0.321 ± 0.19 and the “self-splicing fitness (ln)” value (37 °C) is -0.287 ± 0.25.
For the sequence AUAGAGCAAUAUUACGCCAG, the “self-splicing fitness (ln)” value by setting is: (30 °C) -2.27 ± 0.21; (37 °C) -1.14 ± 0.27.
In the same order, the values of UAGCAGCAAUAUUACGUCCG are -0.746 ± 0.055 and 0.357 ± 0.08.
For the sequence AGGUAGCAAUAUUACGCAAU, the “self-splicing fitness (ln)” value was -1.959 ± 0.017 (30 °C) and -1.03 ± 0.034 (37 °C).
In the same order, the values of ACCUAGCAAUAUUACGAACU are -0.308 ± 0.084 and 0.0875 ± 0.11.
In the same order, the values of CUUCAGCAAUAUUACGAGGA are -2.73 ± 0.26 and -1.64 ± 0.24.
In the same order, the values of AACCAGCAAUAUUACGCUAC are -2.63 ± 0.14 and -2.05 ± 0.13.
Take UGAAAGCAAUAUUACGGAAG: the “self-splicing fitness (ln)” value (30 °C) was -1.78 ± 0.11 and the “self-splicing fitness (ln)” value (37 °C) was -1.15 ± 0.14.
For the sequence CCAGAGCAAUAUUACGCAAA, the “self-splicing fitness (ln)” value is, setting by setting: (30 °C) -2.79 ± 0.48; (37 °C) -1.57 ± 0.33.
Consider CUGAAGCAAUAUUACGACUC, for which the “self-splicing fitness (ln)” value (30 °C) is -1.82 ± 0.22.
Consider CGGAAGCAAUAUUACGGAGG, for which the “self-splicing fitness (ln)” value is -1.25 ± 0.15 (30 °C) and -1.01 ± 0.21 (37 °C).
Take UUGUAGCAAUAUUACGGGUU: the “self-splicing fitness (ln)” value was -4.7 ± 0.34 (30 °C) and -2.83 ± 0.3 (37 °C).
For the sequence AUAAAGCAAUAUUACGUGGG, the “self-splicing fitness (ln)” value (30 °C) is -2.92 ± 0.095 and the “self-splicing fitness (ln)” value (37 °C) was -3.02 ± 0.15.
CGUCAGCAAUAUUACGCUAU: the “self-splicing fitness (ln)” value is -3.14 ± 0.19 (30 °C) and -1.55 ± 0.17 (37 °C).
With UGCAAGCAAUAUUACGCAAC, the “self-splicing fitness (ln)” value by setting is: (30 °C) -1.9 ± 0.26; (37 °C) -2.11 ± 0.28.
